From article PMC11229321 (Nucleic Acids Research, 2024)
Changes are numbered by the printed parent chain. Names may count otherwise.

Columns and labels:
[1] = target: YejK(Δ134–147) (E. coli) (UniProt P33920); test: SEC
[2] = target: the molecule itself; test: SEC
[3] = target: the molecule itself; test: cross-linking
[4] = target: T1, YejK C-trunc, YejK(1-290) (Escherichia coli, UniProt P33920 1-290, del291-335); test: fluorescence polarization
T1 sequence: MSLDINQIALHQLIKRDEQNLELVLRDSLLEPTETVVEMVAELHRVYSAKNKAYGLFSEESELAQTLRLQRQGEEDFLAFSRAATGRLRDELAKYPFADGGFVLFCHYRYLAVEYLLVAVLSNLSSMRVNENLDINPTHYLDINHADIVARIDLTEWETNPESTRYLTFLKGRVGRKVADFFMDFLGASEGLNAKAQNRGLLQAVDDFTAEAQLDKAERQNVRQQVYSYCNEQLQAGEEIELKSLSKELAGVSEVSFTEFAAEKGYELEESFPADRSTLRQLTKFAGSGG

[5] = target: T2, YejK (Escherichia coli, UniProt P33920 1-335); test: fluorescence polarization
T2 sequence: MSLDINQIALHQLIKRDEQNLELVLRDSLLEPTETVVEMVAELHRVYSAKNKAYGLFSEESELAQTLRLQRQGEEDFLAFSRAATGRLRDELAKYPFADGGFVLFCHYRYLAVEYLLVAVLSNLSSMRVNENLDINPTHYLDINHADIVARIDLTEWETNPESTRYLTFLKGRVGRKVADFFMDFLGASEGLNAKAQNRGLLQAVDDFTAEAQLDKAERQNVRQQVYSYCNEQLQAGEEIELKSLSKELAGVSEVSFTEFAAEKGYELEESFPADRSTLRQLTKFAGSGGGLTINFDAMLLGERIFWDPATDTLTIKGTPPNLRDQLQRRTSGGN

[6] = target: T3, YejK(R276A-R280A-K284A) (Escherichia coli, UniProt P33920 1-335, R276A;R280A;K284A); test: fluorescence polarization
T3 sequence: T2 sequence with R276A, R280A, K284A

YejK(Δ134–147) (from UniProt P33920 1-335) (natural protein)
stoichiometry N [1]: 2

B1: E. coli YejK protein (WT) (natural protein, UniProt P33920 1-335, looked up)
chain: T2 sequence
stoichiometry N [2]: 2

B2: YejK(R173A-R176A-K177A) (natural protein, E. coli, UniProt P33920 1-335, looked up)
chain: T2 sequence with R173A, R176A, K177A
stoichiometry N [3]: 2

B3: YejK(R276A-R280A-K284A) (natural protein, E. coli, UniProt P33920 1-335, looked up)
chain: T2 sequence with R276A, R280A, K284A
stoichiometry N [3]: 2

B4: AT-rich 20-mer (dsDNA)
DNA 1: ATTATTAATTAATTAATAAT
DNA 2: ATTATTAATTAATTAATAAT
binding result [4]: no binding | Kd [5]: 6.8 ± 0.5 µM | Kd [6]: 40 ± 5.6 µM
